Test results published in article PMC7166090, “A bacteriophage mimic of the bacterial nucleoid-associated protein Fis” (Biochemical Journal, 2020).

What was measured:
His-NinH H45A = target: T1, His-NinH H45A (Bacteriophage lambda (cI857 Sam7), UniProt P03771 1-68, A15T;H45A); assay: MST; retained significant binding; MST: PBS pH 7.4 + 0.05% Tween-20, 22 C; anisotropy: 6.7 mM Tris-HCl pH 8.0, 3.3 nM (so in the source) sodium acetate, 2 mM EDTA, 25 C; EMSA (32P): 50 mM Tris-HCl pH 8.0, 5 mM EDTA, 1 mM DTT, 5% glycerol, 100 ug/ml BSA, on ice; EMSA (Cy520): PBS pH 7.4, room temp; settings: protein: recombinant; tags: N-His6; label: 5'-Cy5 on strand 1; blunt
T1 sequence: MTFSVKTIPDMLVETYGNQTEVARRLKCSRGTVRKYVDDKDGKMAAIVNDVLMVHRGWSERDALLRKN

His-NinH N18A = target: T2, His-NinH N18A (Bacteriophage lambda (cI857 Sam7), UniProt P03771 1-68, A15T;N18A); assay: MST; intermediate effect; MST: PBS pH 7.4 + 0.05% Tween-20, 22 C; anisotropy: 6.7 mM Tris-HCl pH 8.0, 3.3 nM (so in the source) sodium acetate, 2 mM EDTA, 25 C; EMSA (32P): 50 mM Tris-HCl pH 8.0, 5 mM EDTA, 1 mM DTT, 5% glycerol, 100 ug/ml BSA, on ice; EMSA (Cy520): PBS pH 7.4, room temp; settings: protein: recombinant; tags: N-His6; chain copies: 2; label: 5'-Cy5 on strand 1; blunt
T2 sequence: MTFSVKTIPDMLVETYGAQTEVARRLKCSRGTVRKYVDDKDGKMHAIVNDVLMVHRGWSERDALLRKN

His-NinH wt [1] = target: T3, His-NinH wt (Bacteriophage lambda (cI857 Sam7), UniProt P03771 1-68, A15T); assay: EMSA; sub-micromolar; PBS; MST: PBS pH 7.4 + 0.05% Tween-20, 22 C; anisotropy: 6.7 mM Tris-HCl pH 8.0, 3.3 nM (so in the source) sodium acetate, 2 mM EDTA, 25 C; EMSA (32P): 50 mM Tris-HCl pH 8.0, 5 mM EDTA, 1 mM DTT, 5% glycerol, 100 ug/ml BSA, on ice; EMSA (Cy520): PBS pH 7.4, room temp; settings: protein: recombinant; tags: N-His6; chain copies: 2; label: 5'-Cy5 on strand 1; blunt
T3 sequence: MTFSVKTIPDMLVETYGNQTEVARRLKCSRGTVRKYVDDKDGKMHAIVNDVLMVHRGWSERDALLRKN

His-NinH K35A = target: T4, His-NinH K35A (Bacteriophage lambda (cI857 Sam7), UniProt P03771 1-68, A15T;K35A); assay: MST; MST: PBS pH 7.4 + 0.05% Tween-20, 22 C; anisotropy: 6.7 mM Tris-HCl pH 8.0, 3.3 nM (so in the source) sodium acetate, 2 mM EDTA, 25 C; EMSA (32P): 50 mM Tris-HCl pH 8.0, 5 mM EDTA, 1 mM DTT, 5% glycerol, 100 ug/ml BSA, on ice; EMSA (Cy520): PBS pH 7.4, room temp; settings: protein: recombinant; tags: N-His6; chain copies: 2; label: 5'-Cy5 on strand 1; blunt
T4 sequence: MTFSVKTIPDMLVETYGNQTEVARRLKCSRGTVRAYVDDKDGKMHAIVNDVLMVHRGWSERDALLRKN

His-NinH S29A = target: T5, His-NinH S29A (Bacteriophage lambda (cI857 Sam7), UniProt P03771 1-68, A15T;S29A); assay: as above; settings: protein: recombinant; tags: N-His6; chain copies: 2; label: 5'-Cy5 on strand 1; blunt
T5 sequence: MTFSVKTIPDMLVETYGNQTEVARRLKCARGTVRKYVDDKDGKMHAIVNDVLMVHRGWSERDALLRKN

His-NinH wt [2] = target: T3, His-NinH wt; assay: as above; settings: protein: recombinant; tags: N-His6; chain copies: 2; label: 5'-Cy5 on strand 1; blunt
His-NinH T32A = target: T6, His-NinH T32A (Bacteriophage lambda (cI857 Sam7), UniProt P03771 1-68, A15T;T32A); assay: as above; settings: protein: recombinant; tags: N-His6; chain copies: 2; label: 5'-Cy5 on strand 1; blunt
T6 sequence: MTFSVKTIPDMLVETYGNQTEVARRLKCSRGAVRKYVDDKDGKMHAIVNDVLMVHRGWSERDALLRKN

His-NinH R56A = target: T7, His-NinH R56A (Bacteriophage lambda (cI857 Sam7), UniProt P03771 1-68, A15T;R56A); assay: as above; settings: protein: recombinant; tags: N-His6; chain copies: 2; label: 5'-Cy5 on strand 1; blunt
T7 sequence: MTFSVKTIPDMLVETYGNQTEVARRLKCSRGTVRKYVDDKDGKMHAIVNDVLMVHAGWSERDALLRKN

B1: Cy520 (NinH consensus) (dsDNA)
DNA 1: ACCGATCAAGAATTGTGCAT
DNA 2: ATGCACAATTCTTGATCGGT
Which results are given for B1?
Kd (His-NinH H45A): > 350 nM; Kd (His-NinH N18A): > 220 nM; Kd (His-NinH wt [1]): < 1000 nM; binding result (His-NinH K35A): no binding; Kd (His-NinH S29A): 13 ± 2.7 nM; Kd (His-NinH wt [2]): 5.6 ± 1.5 nM; binding result (His-NinH T32A): no binding; binding result (His-NinH R56A): no binding
